No end group written: not given here.
Molecular target: the molecule itself
Assay: cross-linking; disulfide cross-linking of engineered terminal Cys residues; purified fragments on SDS-PAGE under non-reducing conditions (only a monomer band under reducing conditions)

B1: CC1: EFhd2 coiled-coil domain (residues 199-240) with CysGlyGly at the N-terminus (domain or fragment, human)
chain: CGGQAINVSSRFEEEIKAEQEERKKQAEEMKQRKAAFKELQSTFK
notes: engineered CysGlyGly at the N-terminus of the fragment; human EFhd2/Swiprosin-1 predicted coiled-coil domain, residues 199-240; source: E. coli, purified (pGEX-4T-1; GST removed by thrombin); not shown: GST, N-terminal, cleaved
stoichiometry N: 2

B2: CC2: EFhd2 coiled-coil domain (residues 199-240) with GlyGlyCys at the C-terminus (domain or fragment, human)
chain: QAINVSSRFEEEIKAEQEERKKQAEEMKQRKAAFKELQSTFKGGC
modifications: also: disulfide-linked dimer via Cys
notes: human EFhd2/Swiprosin-1 predicted coiled-coil domain, residues 199-240; engineered GlyGlyCys at the C-terminus of the fragment; source: E. coli, purified (modified pET-21a, same procedure as the other EFhd2 proteins); not shown: His6, N-terminal, kept
stoichiometry N: 2
